Molecular target: UL12 alkaline nuclease (Herpes simplex virus 1) (UniProt P04294)
Experiment: cleavage_in_vitro
Conditions: optimal nuclease conditions; 0.06 at strand exchange conditions (pH 7.5, 1 mM MgCl2, 40 mM NaCl, 37 C)

UL12 alkaline nuclease (Herpes simplex virus 1), sequence (P04294 whole entry): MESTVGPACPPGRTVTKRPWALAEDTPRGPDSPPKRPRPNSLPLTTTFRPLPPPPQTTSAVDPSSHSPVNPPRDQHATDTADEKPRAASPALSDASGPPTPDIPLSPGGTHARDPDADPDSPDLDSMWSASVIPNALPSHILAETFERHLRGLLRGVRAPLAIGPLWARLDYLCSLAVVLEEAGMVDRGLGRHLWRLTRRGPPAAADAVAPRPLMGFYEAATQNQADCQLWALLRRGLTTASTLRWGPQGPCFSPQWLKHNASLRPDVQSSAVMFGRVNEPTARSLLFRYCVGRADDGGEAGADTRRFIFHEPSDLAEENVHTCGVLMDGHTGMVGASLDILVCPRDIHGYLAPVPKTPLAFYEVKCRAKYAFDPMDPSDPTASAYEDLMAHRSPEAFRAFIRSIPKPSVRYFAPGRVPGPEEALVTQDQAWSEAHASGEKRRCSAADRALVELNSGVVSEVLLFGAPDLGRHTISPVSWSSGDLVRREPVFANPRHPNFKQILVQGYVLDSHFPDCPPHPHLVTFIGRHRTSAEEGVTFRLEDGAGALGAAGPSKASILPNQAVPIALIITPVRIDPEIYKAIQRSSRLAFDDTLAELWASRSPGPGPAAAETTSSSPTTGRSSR

E. coli chromosomal DNA was tested, and the activity (ng DNA/min/ng protein) was 0.2.
